These results are taken from EP2193147B1.

As usually defined, the Kd is the concentration at which binding is half-saturated. A high value points to lower affinity.

One test has as its target human ferritin (human) (UniProt P02794). Kind of test: method not stated.
The target of test [1] is human liver ferritin, Calbiochem (human) (UniProt P02794). Briefly: solid-phase RIA, 111In-labelled antibody, ferritin immobilised at 5 ug/ml on tubes.
The target is the same in test [2]. Briefly: solid-phase RIA, 90Y-labelled antibody, ferritin immobilised at 5 ug/ml on tubes.
The target of test [3] is ferritin of fixed and permeabilized CAPAN-1 cells (human) (UniProt P02794). Kind of test: 111In-labelled antibody on fixed and permeabilized CAPAN-1 cells, Lindmo linear extrapolation.
Chain of ferritin of fixed and permeabilized CAPAN-1 cells (human) (P02794 whole entry, chain 1 of 2): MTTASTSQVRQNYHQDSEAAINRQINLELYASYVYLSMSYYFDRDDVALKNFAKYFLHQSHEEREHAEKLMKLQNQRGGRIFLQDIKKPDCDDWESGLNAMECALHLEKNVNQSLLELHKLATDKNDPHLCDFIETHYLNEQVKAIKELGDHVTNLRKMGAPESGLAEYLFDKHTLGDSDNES
Chain of ferritin of fixed and permeabilized CAPAN-1 cells (human) (P02792 2-175, chain 2 of 2, further chain): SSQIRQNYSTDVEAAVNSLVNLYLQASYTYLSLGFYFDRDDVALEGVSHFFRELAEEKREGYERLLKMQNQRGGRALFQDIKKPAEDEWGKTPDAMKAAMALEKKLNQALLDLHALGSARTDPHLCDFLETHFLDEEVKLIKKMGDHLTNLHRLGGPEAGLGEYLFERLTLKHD

Chain of human liver ferritin, Calbiochem (human) (P02794 2-183 limits assumed, chain 1 of 2): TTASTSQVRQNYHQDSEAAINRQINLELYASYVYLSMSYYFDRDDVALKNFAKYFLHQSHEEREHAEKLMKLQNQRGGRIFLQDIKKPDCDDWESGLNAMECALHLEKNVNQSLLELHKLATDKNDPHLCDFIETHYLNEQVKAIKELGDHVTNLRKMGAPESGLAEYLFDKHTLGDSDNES
Chain of human liver ferritin, Calbiochem (human) (P02792 2-175 limits assumed, chain 2 of 2, further chain): as the sequence (P02792 2-175, chain 2 of 2, further chain) above
Chain of human ferritin (human) (P02794 2-183 limits assumed, chain 1 of 2): as the sequence (P02794 2-183 limits assumed, chain 1 of 2) above
Chain of human ferritin (human) (P02792 2-175 limits assumed, chain 2 of 2, further chain): as the sequence (P02792 2-175, chain 2 of 2, further chain) above

B1: AMB8LK monoclonal IgG1 anti-ferritin antibody (murine, unconjugated) (antibody, from another filing, V domains shown)
VH: QVQLKESGPGLVAPSQSLSITCTVSGFSLSRYSVHWVRQPPGKGLEWLGTIWGGGSTDYNSVLKSRLSISKDNSKSQVLLKVNSLQTDDTAIYYCASGPYYYTMDYWGQGTSVTVSS
VL: QIVLTQSPAILSASLGEEITLTCSASSSVTFMHWYQQKSGTSPKLLIYTTSNLASGVPSRFSGSGSGTFYSLTISSVEAEDAADYYCHQWSSYPTFGSGTKLEIKR
Molecule B1 yielded a Kd with human ferritin (human) of 5.1 nM.

B2: Bz-DTPA-AMB8LK (antibody, from another filing, V domains shown)
VH: QVQLKESGPGLVAPSQSLSITCTVSGFSLSRYSVHWVRQPPGKGLEWLGTIWGGGSTDYNSVLKSRLSISKDNSKSQVLLKVNSLQTDDTAIYYCASGPYYYTMDYWGQGTSVTVSS
VL: QIVLTQSPAILSASLGEEITLTCSASSSVTFMHWYQQKSGTSPKLLIYTTSNLASGVPSRFSGSGSGTFYSLTISSVEAEDAADYYCHQWSSYPTFGSGTKLEIKR
In the case of B2, the percentage of bound antibody in test [1] came to 87%; in test [2] it was 100%. Further, in test [3], the immunoreactive fraction was 52%.

B3: Bz-CHX-A"-DTPA-AMB8LK (antibody, from another filing, V domains shown)
VH: QVQLKESGPGLVAPSQSLSITCTVSGFSLSRYSVHWVRQPPGKGLEWLGTIWGGGSTDYNSVLKSRLSISKDNSKSQVLLKVNSLQTDDTAIYYCASGPYYYTMDYWGQGTSVTVSS
VL: QIVLTQSPAILSASLGEEITLTCSASSSVTFMHWYQQKSGTSPKLLIYTTSNLASGVPSRFSGSGSGTFYSLTISSVEAEDAADYYCHQWSSYPTFGSGTKLEIKR
As to B3, the results for the percentage of bound antibody in test [1] and in test [2] were 74.8% and 98.9%, respectively. For the same molecule, the immunoreactive fraction in test [3] is 43%.

B4: Bz-DOTA-AMB8LK (antibody, from another filing, V domains shown)
VH: QVQLKESGPGLVAPSQSLSITCTVSGFSLSRYSVHWVRQPPGKGLEWLGTIWGGGSTDYNSVLKSRLSISKDNSKSQVLLKVNSLQTDDTAIYYCASGPYYYTMDYWGQGTSVTVSS
VL: QIVLTQSPAILSASLGEEITLTCSASSSVTFMHWYQQKSGTSPKLLIYTTSNLASGVPSRFSGSGSGTFYSLTISSVEAEDAADYYCHQWSSYPTFGSGTKLEIKR
Turning to B4, the percentage of bound antibody stood at 76.8% in test [1] and 73.2% in test [2]. In test [3], the immunoreactive fraction is 24%.
